Measurements taken from paper PMC11597407 (2024).
Ends that are not written are not given here.

Columns and labels:
[1] = biological target: T1, talin1 F2F3 domains; assay: FP
T1 chain: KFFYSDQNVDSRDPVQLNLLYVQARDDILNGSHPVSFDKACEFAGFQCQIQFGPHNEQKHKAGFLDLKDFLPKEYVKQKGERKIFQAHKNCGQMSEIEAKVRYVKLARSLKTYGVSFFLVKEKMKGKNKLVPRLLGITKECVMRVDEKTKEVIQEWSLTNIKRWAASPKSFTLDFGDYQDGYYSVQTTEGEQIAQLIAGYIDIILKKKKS

[2] = biological target: T2, talin2 F2F3 domains; assay: FP
T2 chain: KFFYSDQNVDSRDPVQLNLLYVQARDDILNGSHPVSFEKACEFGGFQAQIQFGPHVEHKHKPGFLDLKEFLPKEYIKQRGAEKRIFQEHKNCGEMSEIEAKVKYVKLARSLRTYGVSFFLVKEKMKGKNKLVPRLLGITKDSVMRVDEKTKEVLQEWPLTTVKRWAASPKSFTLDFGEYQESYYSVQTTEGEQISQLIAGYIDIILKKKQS

B1: β1A (peptide)
chain: KLLMIIHDRREFAKFEKEKMNAKWDTGENPIYKSAVTTVVNPKYEGK
modifications: not fully specified (N-terminus)
Binder B1 has a Kd [1] of 95.1 µM.

B2: β1A (peptide)
chain: KLLMIIHDRREFAKFEKEKMNAKWDTGENPIYKSAVTTVVNPKYEGK
modifications: not fully specified (N-terminus)
B2 was tested, and the Kd [2] was 35.3 µM.
